Laboratory results as given in patent US20050272050A1 (published 2005).

T1: full length human CD154 on stably transfected mouse fibroblasts (human, UniProt P29965 1-261)
T1 construct: whole, on cells; also called membrane CD154; hCD154
T1 sequence (looked up): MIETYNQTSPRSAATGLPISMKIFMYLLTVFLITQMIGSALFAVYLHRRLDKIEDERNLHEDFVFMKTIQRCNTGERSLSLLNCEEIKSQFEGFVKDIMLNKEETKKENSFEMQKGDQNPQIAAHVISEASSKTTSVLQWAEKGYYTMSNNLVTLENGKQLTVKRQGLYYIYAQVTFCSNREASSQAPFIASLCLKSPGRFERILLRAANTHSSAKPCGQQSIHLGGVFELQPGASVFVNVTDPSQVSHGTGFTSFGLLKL

B1: CD40 NJ1 splice variant (receptor)
chain: EPPTACREKQYLINSQCCSLCQPGQKLVSDCTEFTETECLPCGESEFLDTWNRETHCHQHKYCDPNLGLRVQQKGTSETDTICTCEEGWHCTSEACESCVLHRSCSPGFGVKQIATGVSDTICEPCPVGFFSNVSSAFEKCHPWTSCETKDLVVQQAGTNKTDVVCGESWTMGPGESLGRWELKGEMRHTGTLDGKKGRGGSLGVWYHSSATYLGSLGKSLPLS
notes: For ELISA and FACS it was expressed non-fused with baculovirus, secreted and purified from the supernatant on a G28-5 column; also called CD40 NJ1 variant; CD40 variant NJ1
B2: CD40 NJ3 splice variant (receptor)
chain: EPPTACREKQYLINSQCCSLCQPGQKLVSDCTEFTETECLPCGESEFLDTWNRETHCHQHKYCDPNLGLRVQQKGTSETDTICTCEEGWHCTSEACESCVLHRSCSPGFGVKQIATGVSDTICEPCPVGFFSNVSSAFEKCHPWTSCETKDLVVQQAGTNKTDVVCGESWTMGPGESLGRSPGSAESPGGDPHHLRDPVCHPLGAGLYQKGGQEANQ
notes: For ELISA and FACS it was expressed non-fused with baculovirus, secreted and purified from the supernatant on a G28-5 column; also called CD40 NJ3 variant; CD40 variant NJ3

Target: T1, full length human CD154 on stably …
Assay: flow cytometry on mouse fibroblasts transfected with human CD154, detected with PE-EA-5
Procedure: 10⁶ mouse fibroblasts (stably transfected with full length human CD154) were incubated with CD40 NJ1 (FIGS. 7-8) or CD40 NJ3 variants (FIGS. 9-11). All the proteins were incubated at a concentration of 1-50 μg/ml at 4° C. for 60 min in total volume of 100 μl (0.5×10^6 cells). […] Analysis was performed using BD FACsCalibur. A known CD40 soluble variant was used (in the form of a FC tagged protein) as a positive control for detecting binding to CD154 (U.S. patent application No. 60/547,422, hereby incorporated by reference as if fully set forth herein) (FIG. 17-18).
Briefly, the FACS protocol was as follows. Mouse fibroblasts were trypsinized, and washed twice in PBS; cells were centrifuged at 1500 rpm for 10 min between washes. Next, the cells were re-suspended in FACS buffer (0.2% BSA and 0.02% sodium azide diluted 1/10 in PBS) to give 5-10×10⁶ cells mL. Cells were placed in FACS test-tubes at a volume of 100 or 200 microliters per tube.
Next, 2 μL (1:50) […] non-blocking antibody (EA-5 mouse IgG1 PE-conjugated, obtained from Calbiochem) or controls (same isotype PE conjugated) were added to the tubes, and incubated for 30 min at 4° C. The process of washing was then repeated with 5 mL PBS. Next, 0.5 mL PBS was added to tubes, which were read in a FACS machine (BD FACSCalibur).

Row | Binder | binding result
1 | B1 | binds
2 | B2 | binds
